Assay in all cases: purified protein, by the assay type
Common to all, as to type: biochemical, Bacillus cereus
Settings in all cases: other: 10 mM phosphate buffer, pH 7.0, 30° C, Hanes plot, mean of three independent measurements

The subject of series [1] is CC1(C)S[C@@H]2[C@H](NC(=O)[C@H](N)c3ccccc3)C(=O)N2[C@H]1C(=O)O. As to the method: (§1) The enzyme kinetic parameters kcat and Km were determined from initial rates by Hanes plot. The reactions were performed in 10 mM phosphate buffer, pH 7.0 at 30° C. The reaction cuvette (one mL) contained about 5 pmol of enzyme in all reactions except 1.7 pmol of enzyme in the meropenem assay. The hydrolysis of various beta-lactam substrates was spectrophometrically recorded at a wavelength specific for each substrate.
(§2) Values for different kinetic parameters (kcat, Km and kcat/Km) that represent mean values obtained from three independent measurements are reported in Table 6.

For series [2], the system named is CC1(C)S[C@@H]2[C@H](NC(=O)[C@H](N)c3ccc(O)cc3)C(=O)N2[C@H]1C(=O)O. The protocol: as §1, §2
Series [3] has as its system CO/N=C(\C(=O)N[C@@H]1C(=O)N2C(C(=O)O)=C(CSc3nc(=O)c(=O)[nH]n3C)CS[C@H]12)c1csc(N)n1. The protocol: as §1, §2
The subject of series [4] is CCN1CCN(C(=O)N[C@@H](C(=O)N[C@@H]2C(=O)N3[C@@H]2SC(C)(C)[C@@H]3C(=O)O)c2ccccc2)C(=O)C1=O. The protocol:
as §1, §2

For series [5], the system named is CO/N=C(\C(=O)N[C@@H]1C(=O)N2C(C(=O)O)=C(COC(C)=O)CS[C@H]12)c1csc(N)n1. As to the method:
as §1, §2

For series [6], the system named is C[C@@H](O)[C@H]1C(=O)N2C(C(=O)O)=C(S[C@@H]3CN[C@H](C(=O)N(C)C)C3)[C@H](C)[C@H]12. The protocol:
as §1, §2

Series [7] has as its system CO/N=C(\C(=O)N[C@@H]1C(=O)N2C(C(=O)O)=C(COC(N)=O)CS[C@H]12)c1ccco1. The protocol:
as §1, §2

These results are taken from patent publication US7989192B2, “Modified beta-lactamase and method for its preparation” (IPSAT Therapies Oy, priority 2006, dated 2011).

Usually Km stands for the concentration of substrate that gives half-maximal velocity. Regarding “P2A metallo-beta-lactamase (Bacillus cereus)”, the Km in series [1] was 942 µM; in series [2] it was 716 µM; in series [3], 68 µM; in series [4] it was 372 µM; in series [5], 66 µM; in series [6], 410 µM. In addition, in series [7], the Km came out at 27 µM.
